Source: article PMC314469, “Protein Interaction Networks by Proteome Peptide Scanning” (PLoS Biology, 2004)

T1: amphyphisin SH3 (AMPH_HUMAN), P49418
T1 chain: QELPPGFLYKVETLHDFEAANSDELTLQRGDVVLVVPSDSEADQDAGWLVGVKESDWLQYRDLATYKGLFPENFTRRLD


How the values were obtained:
[1] = target: T1, amphyphisin SH3 (AMPH_HUMAN), P49418; assay: SPOT array
[2] = target: endophilin SH3 (SH3G2_HUMAN), Q99962; assay: SPOT array

normalised SPOT signal, Boehringer light units (BLU); mean over the file's lines of this peptide [1] | normalised SPOT signal, Boehringer light units (BLU); mean over the file's lines of this peptide [2] | Binder
60.8 | 154 | LSQPPRRPWGNLTA [P22105 891-904]
60 | 52.4 | LTIELRRPENEFWV [Q9NVH6 359-372]
482 | 102 | LTLKPIRPRKYPNR [Q06889 251-264]
21.1 | 67.5 | LSKWLKRPGALEKQ [Q96S42 159-172]
24 | 71.7 | LTWLPPKPPTAFDG [Q16827 346-360]
70.3 | 1560 | LTSFLRRPFQSPTS [Q04637 602-615]
1960 | 2110 | LVIRLPRPPKVLRL [Q9HC66 56-69]
35.6 | 43 | LTSGLRRPFGVAVM [Q14185 317-330]
23.5 | 17.9 | LTVAIRRPPDLGGP [Q96NX2 418-431]
55.4 | 37 | LTPVPSKPPVTPAT [Q03112 565-579]
46.1 | 39.8 | LSPRPEKPPEEPGQ [O14687 279-293]
30 | 38.6 | LSLLLKRPWDPAVG [Q9NWE5 158-171]
14800 | 19500 | LVIRPPRPPKVLRL [Q9H3C0 95-109]
41 | 44.1 | LTLLFKRPFGTSDP [P09172 129-142]
142 | 428 | LTSGPARPWKSVAL [Q01113 359-372]
7.1 | 69.5 | APRYLGRPKKEKTI [Q9C0B5 292-305]

normalised SPOT signal, Boehringer light units (BLU); mean over the file's lines of this peptide [1] | normalised SPOT signal, Boehringer light units (BLU); mean over the file's lines of this peptide [2] | Binder
4910 | 176 | LVNGFLRPLRMAAS [Q9UK56 265-278]
120 | 106 | LSNSLTRPQKLSPV [O60673 804-817]
2960 | 170 | LTHVLSRPRRGSSG [Q9H6B9 44-57]
12100 | 1250 | LVNNFLRPLRMAAS [Q13972 262-275]
732 | 49.7 | LVLEFLRPDRQGVT [Q14997 962-975]
100 | 280 | LSSPLRRPWDQAQH [Q9P2W0 105-118]
8.1 | 159 | LTLNIRRPSPFDAG [Q14324 1104-1117]
12400 | 20800 | LVIRPPRPPKVLGL [P39189 565-579]
22.4 | 27 | LSGGLKRPSTRTPN [Q9BQL3 78-91]
387 | 6210 | LVIRLRRPPLRYPR [Q9HAJ1 68-81]
132 | 199 | LTKVFFRPGKFAEF [Q9UM54 753-766]
94.9 | 192 | LTVTLQRPTKELHG [Q9Y2K7 133-146]
2420 | 1500 | APRRPRRPRRPGPS [Q96QG0 341-354]
90.6 | 12900 | LVIRLRRPPLRSPR [Q9H8Y6 68-81]
29.3 | 158 | LTVAIRRPTDDSNQ [Q9Y2E4 454-467]
